First the molecules themselves.
B1: mouse C4G1 antibody (antibody, V domains shown)
VH: QVQLQQSGAELVGPGTSVRVSCKASGYAFTNYLIEWVKQRPGQGLEWIGVIYPGSGGTNYNEKFKGKATLTVDKSSTTAYMQLSSLTSDDSAVYFCARRDGNYGWFAYWGRGTLVTVSA
VL: DIQMTQTTSSLSASLGDRVTISCRASQDINNYLNWYQQKPDGIVKLLIYYTSTLHSGVPSRFSGSGSGTDYSLTISNLEQEDIATYFCQQGNTLPWTFGGGTKLEIK
B2: mouse C4G1 Fab fragment (Fab, V domains shown)
VH: B1 VH
VL: B1 VL
B3: mouse C4G1 F(ab')2 fragment (other)
VH: B1 VH
VL: B1 VL
B4: humanized C4G1 antibody (antibody, V domains shown)
VH: QVQLVQSGAEVKKPGSSVKVSCKASGYAFTNYLIEWVRQAPGQGLEWIGVIYPGSGGTNYNEKFKGRVTLTVDESTNTAYMELSSLRSEDTAVYFCARRDGNYGWFAYWGQGTLVTVSS
VL: DIQMTQTPSTLSASVGDRVTISCRASQDINNYLNWYQQKPGKAPKLLIYYTSTLHSGVPSRFSGSGSGTDYTLTISSLQPDDFATYFCQQGNTLPWTFGQGTKVEVKR

For the assay, the target named is GPIIb/IIIa (human, UniProt P08514). As to the kind of experiment: competitive binding on HEL 92.1.7 cells, radioiodinated mouse C4G1 as tracer. On the procedure: The affinities of the humanized C4G1 antibody, Fab fragment and F(ab')_2-1 fragment were determined by competitive binding with the respective mouse C4G1 antibody and fragments. Purified human platelets were used as source of the GPIIb/IIIa antigen. The platelets were purified from buffy coats from normal human donors by centrifugation on ficoll-hypaque. Increasing amounts of humanized or mouse competitor antibody or fragment was added to 4.5 ng of radioiodinated tracer C4G1 antibody (3.5 µCi/ug) and incubated with 3×10^7 platelets in 0.2 ml of modified Tyrode's buffer for 1 hr. at room temperature. Cells were washed with 2 ml of ice-cold buffer and pelleted. The radioactivities were measured, and the concentrations of bound and free tracer antibody were calculated (FIG. 8). The binding affinities of the various antibodies and fragments were calculated as in Queen et al., Proc. Nat. Acad. Sci. USA 86, 10029 (1989). […] The same result was obtained when competitive binding was performed with HEL 92.1.7 cells as source of GPIIb/IIIa antigen. Moreover all the actual binding affinities to these cells were about 10^8 M^-1 or higher.
In the case of B1, the Ka was not below 1e+08 M⁻¹.
The same measure for B2: not below 1e+08 M⁻¹.
Molecule B3 registered a Ka not below 1e+08 M⁻¹.
The same measure for B4: more than 1e+08 M⁻¹.

Values taken from patent publication US5777085, “Humanized antibodies reactive with GPIIB/IIIA” (Protein Design Labs, Inc., dated 1998).
